Assay results as given in patent publication US20260001928A1 (CORTERIA PHARMACEUTICALS, priority 2022, published 2026).
Blank lines part the entries; values can stand above or below the binder they belong to. *1 amine or outer side, *2 acyl side, *3 side chain or, on linkers, in order; H or OH if unused. Where no end group is shown, it is not given here. Side-chain parts run from the residue outwards. [ ]: non-standard residue; d: D form. The star is where a group is joined. γGlu = O=C(O)[C@H](CCC(=O)[*:2])N[*:1]; C14 diacid = O=C(O)CCCCCCCCCCCCC(=O)*; C12 diacid = O=C(O)CCCCCCCCCCC(=O)*; NMeI = CC[C@H](C)[C@H](NC)C(=O)O; Api = NC1(C(=O)O)CCNCC1; Pentanoyl = CCCCC(=O)*; AEEA = NCCOCCOCC(=O)O; Aib = CC(C)(N)C(=O)O

How the values were obtained:
[1] = biological target: T1, CRF1R receptor (UniProt P34998 24-415, limits assumed); assay: cell-based or functional assay
T1 sequence (looked up): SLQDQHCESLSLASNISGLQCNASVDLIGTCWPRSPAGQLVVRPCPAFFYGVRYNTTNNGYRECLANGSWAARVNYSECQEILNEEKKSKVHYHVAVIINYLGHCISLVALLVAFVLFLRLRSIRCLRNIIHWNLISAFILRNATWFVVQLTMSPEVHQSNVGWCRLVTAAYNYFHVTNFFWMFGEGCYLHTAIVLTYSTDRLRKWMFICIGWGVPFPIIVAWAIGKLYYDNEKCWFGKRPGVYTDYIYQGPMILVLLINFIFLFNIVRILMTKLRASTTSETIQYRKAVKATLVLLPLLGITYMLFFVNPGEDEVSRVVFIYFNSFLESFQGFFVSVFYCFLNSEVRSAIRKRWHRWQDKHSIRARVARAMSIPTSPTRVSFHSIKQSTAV

[2] = biological target: human corticotropin-releasing factor 2a (CRF2a receptor) (human), Q13324; assay: cell-based or functional assay
Sequence of human corticotropin-releasing factor 2a (CRF2a receptor) (human), Q13324 (Q13324 20-411): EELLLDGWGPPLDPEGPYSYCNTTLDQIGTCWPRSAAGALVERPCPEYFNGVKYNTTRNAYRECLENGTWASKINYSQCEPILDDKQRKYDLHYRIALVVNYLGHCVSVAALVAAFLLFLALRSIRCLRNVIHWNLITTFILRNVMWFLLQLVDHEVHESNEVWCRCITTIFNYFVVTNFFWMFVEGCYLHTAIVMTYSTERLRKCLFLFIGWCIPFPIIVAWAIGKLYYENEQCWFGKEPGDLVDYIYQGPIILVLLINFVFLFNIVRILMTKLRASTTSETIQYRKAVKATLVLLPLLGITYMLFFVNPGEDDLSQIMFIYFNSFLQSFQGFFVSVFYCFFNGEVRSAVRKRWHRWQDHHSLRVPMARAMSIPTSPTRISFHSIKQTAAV

B1: SEQ ID NO 180 (peptide)
peptide: Pentanoyl-VLSLD[dV]PIKLK([AEEA-AEEA-γGlu-C14 diacid])KILLEQEKQKKQREQAETN[Aib]QILAQV-NH2
SMILES: CCCCC(=O)N[C@H](C(=O)N[C@@H](CC(C)C)C(=O)N[C@@H](CO)C(=O)N[C@@H](CC(C)C)C(=O)N[C@@H](CC(=O)O)C(=O)N[C@@H](C(=O)N1CCC[C@H]1C(=O)N[C@H](C(=O)N[C@@H](CCCCN)C(=O)N[C@@H](CC(C)C)C(=O)N[C@@H](CCCCNC(=O)COCCOCCNC(=O)COCCOCCNC(=O)CC[C@H](NC(=O)CCCCCCCCCCCCC(=O)O)C(=O)O)C(=O)N[C@@H](CCCCN)C(=O)N[C@H](C(=O)N[C@@H](CC(C)C)C(=O)N[C@@H](CC(C)C)C(=O)N[C@@H](CCC(=O)O)C(=O)N[C@@H](CCC(N)=O)C(=O)N[C@@H](CCC(=O)O)C(=O)N[C@@H](CCCCN)C(=O)N[C@@H](CCC(N)=O)C(=O)N[C@@H](CCCCN)C(=O)N[C@@H](CCCCN)C(=O)N[C@@H](CCC(N)=O)C(=O)N[C@@H](CCCNC(=N)N)C(=O)N[C@@H](CCC(=O)O)C(=O)N[C@@H](CCC(N)=O)C(=O)N[C@@H](C)C(=O)N[C@@H](CCC(=O)O)C(=O)N[C@H](C(=O)N[C@@H](CC(N)=O)C(=O)NC(C)(C)C(=O)N[C@@H](CCC(N)=O)C(=O)N[C@H](C(=O)N[C@@H](CC(C)C)C(=O)N[C@@H](C)C(=O)N[C@@H](CCC(N)=O)C(=O)N[C@H](C(N)=O)C(C)C)[C@@H](C)CC)[C@@H](C)O)[C@@H](C)CC)[C@@H](C)CC)C(C)C)C(C)C
Emax (% I) [1]: 2%
EC50 [nM] (cAMP) [2]: 10.7 nM

B2: SEQ ID NO 179 (peptide)
peptide: [NMeI]VLSLD[dV]PIKLK([AEEA-AEEA-γGlu-γGlu-C14 diacid])KILLEQEKQKKQREQAETN[Aib]QILAQV-NH2
modifications: N-terminus assumed
SMILES: CC[C@H](C)[C@H](NC)C(=O)N[C@H](C(=O)N[C@@H](CC(C)C)C(=O)N[C@@H](CO)C(=O)N[C@@H](CC(C)C)C(=O)N[C@@H](CC(=O)O)C(=O)N[C@@H](C(=O)N1CCC[C@H]1C(=O)N[C@H](C(=O)N[C@@H](CCCCN)C(=O)N[C@@H](CC(C)C)C(=O)N[C@@H](CCCCNC(=O)COCCOCCNC(=O)COCCOCCNC(=O)CC[C@H](NC(=O)CC[C@H](NC(=O)CCCCCCCCCCCCC(=O)O)C(=O)O)C(=O)O)C(=O)N[C@@H](CCCCN)C(=O)N[C@H](C(=O)N[C@@H](CC(C)C)C(=O)N[C@@H](CC(C)C)C(=O)N[C@@H](CCC(=O)O)C(=O)N[C@@H](CCC(N)=O)C(=O)N[C@@H](CCC(=O)O)C(=O)N[C@@H](CCCCN)C(=O)N[C@@H](CCC(N)=O)C(=O)N[C@@H](CCCCN)C(=O)N[C@@H](CCCCN)C(=O)N[C@@H](CCC(N)=O)C(=O)N[C@@H](CCCNC(=N)N)C(=O)N[C@@H](CCC(=O)O)C(=O)N[C@@H](CCC(N)=O)C(=O)N[C@@H](C)C(=O)N[C@@H](CCC(=O)O)C(=O)N[C@H](C(=O)N[C@@H](CC(N)=O)C(=O)NC(C)(C)C(=O)N[C@@H](CCC(N)=O)C(=O)N[C@H](C(=O)N[C@@H](CC(C)C)C(=O)N[C@@H](C)C(=O)N[C@@H](CCC(N)=O)C(=O)N[C@H](C(N)=O)C(C)C)[C@@H](C)CC)[C@@H](C)O)[C@@H](C)CC)[C@@H](C)CC)C(C)C)C(C)C
Emax (% I) [1]: -4%
EC50 [nM] (cAMP) [2]: 15.6 nM

B5: SEQ ID NO 178 (peptide)
peptide: [NMeI]VLSLD[dV]PIKLK([AEEA-AEEA-γGlu-C14 diacid])KILLEQEKQKKQREQAETN[Aib]QILAQV-NH2
modifications: N-terminus assumed
SMILES: CC[C@H](C)[C@H](NC)C(=O)N[C@H](C(=O)N[C@@H](CC(C)C)C(=O)N[C@@H](CO)C(=O)N[C@@H](CC(C)C)C(=O)N[C@@H](CC(=O)O)C(=O)N[C@@H](C(=O)N1CCC[C@H]1C(=O)N[C@H](C(=O)N[C@@H](CCCCN)C(=O)N[C@@H](CC(C)C)C(=O)N[C@@H](CCCCNC(=O)COCCOCCNC(=O)COCCOCCNC(=O)CC[C@H](NC(=O)CCCCCCCCCCCCC(=O)O)C(=O)O)C(=O)N[C@@H](CCCCN)C(=O)N[C@H](C(=O)N[C@@H](CC(C)C)C(=O)N[C@@H](CC(C)C)C(=O)N[C@@H](CCC(=O)O)C(=O)N[C@@H](CCC(N)=O)C(=O)N[C@@H](CCC(=O)O)C(=O)N[C@@H](CCCCN)C(=O)N[C@@H](CCC(N)=O)C(=O)N[C@@H](CCCCN)C(=O)N[C@@H](CCCCN)C(=O)N[C@@H](CCC(N)=O)C(=O)N[C@@H](CCCNC(=N)N)C(=O)N[C@@H](CCC(=O)O)C(=O)N[C@@H](CCC(N)=O)C(=O)N[C@@H](C)C(=O)N[C@@H](CCC(=O)O)C(=O)N[C@H](C(=O)N[C@@H](CC(N)=O)C(=O)NC(C)(C)C(=O)N[C@@H](CCC(N)=O)C(=O)N[C@H](C(=O)N[C@@H](CC(C)C)C(=O)N[C@@H](C)C(=O)N[C@@H](CCC(N)=O)C(=O)N[C@H](C(N)=O)C(C)C)[C@@H](C)CC)[C@@H](C)O)[C@@H](C)CC)[C@@H](C)CC)C(C)C)C(C)C
Emax (% I) [1]: 1%
EC50 [nM] (cAMP) [2]: 6.5 nM

The remaining lines, values ahead:

Emax (% I) [1]: 11%
EC50 [nM] (cAMP) [2]: 2.47 nM
B3: SEQ ID NO 183 (peptide)
peptide: Ac-IVLSLD[dV]PIKLK([γGlu-C12 diacid])KILLEQEKQKKQREQAETN[Api]QILAQV-NH2
SMILES: CC[C@H](C)[C@H](NC(C)=O)C(=O)N[C@H](C(=O)N[C@@H](CC(C)C)C(=O)N[C@@H](CO)C(=O)N[C@@H](CC(C)C)C(=O)N[C@@H](CC(=O)O)C(=O)N[C@@H](C(=O)N1CCC[C@H]1C(=O)N[C@H](C(=O)N[C@@H](CCCCN)C(=O)N[C@@H](CC(C)C)C(=O)N[C@@H](CCCCNC(=O)CC[C@H](NC(=O)CCCCCCCCCCC(=O)O)C(=O)O)C(=O)N[C@@H](CCCCN)C(=O)N[C@H](C(=O)N[C@@H](CC(C)C)C(=O)N[C@@H](CC(C)C)C(=O)N[C@@H](CCC(=O)O)C(=O)N[C@@H](CCC(N)=O)C(=O)N[C@@H](CCC(=O)O)C(=O)N[C@@H](CCCCN)C(=O)N[C@@H](CCC(N)=O)C(=O)N[C@@H](CCCCN)C(=O)N[C@@H](CCCCN)C(=O)N[C@@H](CCC(N)=O)C(=O)N[C@@H](CCCNC(=N)N)C(=O)N[C@@H](CCC(=O)O)C(=O)N[C@@H](CCC(N)=O)C(=O)N[C@@H](C)C(=O)N[C@@H](CCC(=O)O)C(=O)N[C@H](C(=O)N[C@@H](CC(N)=O)C(=O)NC1(C(=O)N[C@@H](CCC(N)=O)C(=O)N[C@H](C(=O)N[C@@H](CC(C)C)C(=O)N[C@@H](C)C(=O)N[C@@H](CCC(N)=O)C(=O)N[C@H](C(N)=O)C(C)C)[C@@H](C)CC)CCNCC1)[C@@H](C)O)[C@@H](C)CC)[C@@H](C)CC)C(C)C)C(C)C

Emax (% I) [1]: 9%
EC50 [nM] (cAMP) [2]: 24.7 nM
B4: SEQ ID NO 181 (peptide)
peptide: Pentanoyl-VLSLD[dV]PIKLK([AEEA-AEEA-γGlu-γGlu-C14 diacid])KILLEQEKQKKQREQAETN[Aib]QILAQV-NH2
SMILES: CCCCC(=O)N[C@H](C(=O)N[C@@H](CC(C)C)C(=O)N[C@@H](CO)C(=O)N[C@@H](CC(C)C)C(=O)N[C@@H](CC(=O)O)C(=O)N[C@@H](C(=O)N1CCC[C@H]1C(=O)N[C@H](C(=O)N[C@@H](CCCCN)C(=O)N[C@@H](CC(C)C)C(=O)N[C@@H](CCCCNC(=O)COCCOCCNC(=O)COCCOCCNC(=O)CC[C@H](NC(=O)CC[C@H](NC(=O)CCCCCCCCCCCCC(=O)O)C(=O)O)C(=O)O)C(=O)N[C@@H](CCCCN)C(=O)N[C@H](C(=O)N[C@@H](CC(C)C)C(=O)N[C@@H](CC(C)C)C(=O)N[C@@H](CCC(=O)O)C(=O)N[C@@H](CCC(N)=O)C(=O)N[C@@H](CCC(=O)O)C(=O)N[C@@H](CCCCN)C(=O)N[C@@H](CCC(N)=O)C(=O)N[C@@H](CCCCN)C(=O)N[C@@H](CCCCN)C(=O)N[C@@H](CCC(N)=O)C(=O)N[C@@H](CCCNC(=N)N)C(=O)N[C@@H](CCC(=O)O)C(=O)N[C@@H](CCC(N)=O)C(=O)N[C@@H](C)C(=O)N[C@@H](CCC(=O)O)C(=O)N[C@H](C(=O)N[C@@H](CC(N)=O)C(=O)NC(C)(C)C(=O)N[C@@H](CCC(N)=O)C(=O)N[C@H](C(=O)N[C@@H](CC(C)C)C(=O)N[C@@H](C)C(=O)N[C@@H](CCC(N)=O)C(=O)N[C@H](C(N)=O)C(C)C)[C@@H](C)CC)[C@@H](C)O)[C@@H](C)CC)[C@@H](C)CC)C(C)C)C(C)C

Emax (% I) [1]: 1%
EC50 [nM] (cAMP) [2]: 1.88 nM
B6: SEQ ID NO 182 (peptide)
peptide: Ac-IVLSLD[dV]PIKLK([γGlu-C12 diacid])KILLEQEKQKKQREQAETN[Aib]QILAQV-NH2
SMILES: CC[C@H](C)[C@H](NC(C)=O)C(=O)N[C@H](C(=O)N[C@@H](CC(C)C)C(=O)N[C@@H](CO)C(=O)N[C@@H](CC(C)C)C(=O)N[C@@H](CC(=O)O)C(=O)N[C@@H](C(=O)N1CCC[C@H]1C(=O)N[C@H](C(=O)N[C@@H](CCCCN)C(=O)N[C@@H](CC(C)C)C(=O)N[C@@H](CCCCNC(=O)CC[C@H](NC(=O)CCCCCCCCCCC(=O)O)C(=O)O)C(=O)N[C@@H](CCCCN)C(=O)N[C@H](C(=O)N[C@@H](CC(C)C)C(=O)N[C@@H](CC(C)C)C(=O)N[C@@H](CCC(=O)O)C(=O)N[C@@H](CCC(N)=O)C(=O)N[C@@H](CCC(=O)O)C(=O)N[C@@H](CCCCN)C(=O)N[C@@H](CCC(N)=O)C(=O)N[C@@H](CCCCN)C(=O)N[C@@H](CCCCN)C(=O)N[C@@H](CCC(N)=O)C(=O)N[C@@H](CCCNC(=N)N)C(=O)N[C@@H](CCC(=O)O)C(=O)N[C@@H](CCC(N)=O)C(=O)N[C@@H](C)C(=O)N[C@@H](CCC(=O)O)C(=O)N[C@H](C(=O)N[C@@H](CC(N)=O)C(=O)NC(C)(C)C(=O)N[C@@H](CCC(N)=O)C(=O)N[C@H](C(=O)N[C@@H](CC(C)C)C(=O)N[C@@H](C)C(=O)N[C@@H](CCC(N)=O)C(=O)N[C@H](C(N)=O)C(C)C)[C@@H](C)CC)[C@@H](C)O)[C@@H](C)CC)[C@@H](C)CC)C(C)C)C(C)C
